Experimental data taken from the DeepSol protein solubility set.

Assay: soluble on expression in E. coli; label from the status in PepcDB or PDB records

Sequence	soluble on expression in E. coli
MKVHNDFTLYWRVFPSGKKVVYYYAYDESGKRLMGRSTGETNLTSARVKCNKLLKEGELVPNKNHVPTFAEYAEGWWEWETCAYLKKRRKRYSLTQTYADNNKKNLKNHLLPFFGNMPMNKITKIEVEDFFDALIEKEYQNTSINGFYGTLKTMLIEAVERNIIPKDPTDKMGRLVNDRRAIKIITPEEFKKLFVGDWRRVWESDRLSYTANKLAALTGMRASEVVGLKGSFVYDEHIYLCMQYDDYGYRPTKTKDKHNIPLTSDMINELKELKRMNGDGFVFSLDGGATPICRNTVYKHFHRALRNIGITEDEISERHLHLHAWRHFFNTEMLKGGLTVTQAQAVTGHKSERMTEWYCHFDPTEFAKAKEVQEALLRPAQKKAAKEEKAGAKTSGNKDKAVKVIPFPRKENKTAGEETQASLILPLPIFKAPAGLRRELLFLPFQHFPFFFLNCRFVPFLSATGHGIFKAGMGESMEEYLTIFEVAELTKYTVGTLRKFVQKRRVAFHKWGRSLRFRRAEIELWMKMGCGKAVYLPADGDGQTKASAMEIGAES	not soluble
MAHHHHHHMNGTRRFSAAPVNFDRFIALAHSYSRSLSPDRELDQMLRPFQGRAAASTSTATRESTASRVATPQRRHQQMRNGELIDKGSVSTEAEVGKPYWGTTESVAMTRSTTASNTVFSTRAATSTSRTVSGGAAETTSAVSTRSSYLVHSSCPVGEETQELGSGSYSADEVDPLLQAAMQLGSPLYDPVKRQFVCWQLHALEKRPRAAYGDVEGVSCDFCGHTDWLEGVPERATSSPSASATVANADEGKMDTHAPSAAASFTAHARFFYNCSACQVDVCQACLEEVRSDERLHVPCFQCQRCGGYETRQNAPLHRCAEVTRISDDEGSTGVQALLTSPRSNVDASQALPAAPATSSPKYRGVPVGRPVRLGLCRRFQQAVEAVAAPDTEIAAHAGKIANSTPHRKRKRASPEAALVPKQRSGKTTNDTAEVFRVSDVSDKSCRKVRRASASALPKPAPPKQEADDADGDASRALVEAALLPFARYEVHLTPRTAEEVGEVGRIAREQHLVCSPLPSLAKTCVFYFTTRLAAETCVDRATAASLDAILKQSVTPVCRT	not soluble
MKVTNLFKDKVDAISAHQSEFMNWMSPTLRDYWSDFLGKAQNSFLFSNVRDHNQPAVNEEVAPQPAPIVLQPEAQKLYDELSGKIGEVIHTGDWVHVSQERINQFGAVTEDMQWIHTDPERASVESPFKTTIAHGFLTLALLPKLTDSVDADKPLFPTAKLVVNLGLNQVRFPYPVKAGNNVRAVSTLTKVTPIKKGLEIEREIKVEIEGVRRPGAVVVSVIQLHFLEHHHHHH	soluble
MAHHHHHHMKSHNLDLIKNQNFDKNHNFINYSELYKKYKEKYNVKSFNKLPVSTYTYPRYSKITNFDELKTELIYEKEINEIEEEYDDDDEQNNINNYDGNIEILFPMINEKENEDIKKKKTDNIYKSEKKSLRQRIYDGEVMFYEDYIEQLAVKDYEHFFKKPYEIKRKDEGGKNYFYGKKLEMNKEEDIYRKFYGFDDAYFLNKLQLKNKSPQKEKNKEEKQKKRNEEKILERQCGKKLSYEDKKFILNIIEENQLQDNSIYKYYMQNKCIFDKNLPEFKKKELLCGYIPDIILPANVRKVKHPKNCGVPLSSLHIYAQFIHELFKCPYIYNAIDVELGKYWKTNENELLNIMKSEKIKKGYKKDIYTATKEQLEKSSAKLKNLLKNDEVSDDTRKKFTINFKMPKKEKTNLVVSKGRYII	soluble
MAAMITPPGAGVKDKKRAILEATLAVLRERGLSGLKMEEVARRAEVGKGTIYLYFRDKRDLLKALVEERTWAFYREVEEVVRRKAPFFVRLEEVLRRRLAWVQEWRGLWAAVAREAMDDPTPWLKGLHEHYLRLLEELLRSGQSEGAVRTGLSPRATAAVIAAMGCTPSLEVEAYLEHLMEVLRKGVEP	soluble
MAHHHHHHMSNCPHPRGDCGGRSVAAEGTLVPSHISCGDFTFQGGQTPRKELAGVHTSALMQPGLSSAVPSNSILSFSHDVVAAGNGMPPSVSPASSEKKKVLGTSGGGGSAEGTLNSANSSDQGPTGTPVKRNTKPLVPQQHVTKCQLTPNDAAASGLLITTPETPCNEKNPVYAAVGAARQSRERMISAENFTVIQPGGKLRTHLPPQRESGSDKKGKK	soluble
MPKEWLAEDLSEQYVADYKAFNFVDGEGVRCSLYLSGCPFHCPGCYNVAAQNFHYGQPYSQELEDQIIEDLGQDYVQGLTLLGGEPFLNTQVGIRICERIRSEFGNTKDIWSWSGYTWEELQQDSEDKLKMLSLIDILVDGRFLQDKMDLSLQFRGSSNQRIIDVPKSLTAGKVVIWDKLVKLEHHHHHH	soluble
MLRNGRLFGHRVETGFPDLPILEVSLRTGVRVRDMDNLKRKQVMSQKEKYKRAVKGDIAYNMMRMWQGAVGPVPEDGLVSPAYVVVKPYAEANSTYFSYLFRTAAYMQEVNKFSRGIVADRNRLYWESFKQMPSLVPPRPEQDQIVTYLRTQDAHIACFIRAKRDLIALLTEQKLRIIDHAVTRGLDASVKLKPSDIEWLGEVPAHWEVKRLKFLAGNITSQTTTKADDEIYLALEHVQSWTGVARPLGGEVEFASTVKRFVADDVLFGKLRPYLAKVTRVVCAGVCVSEFLVLRSRQELILPAYLEQLLRCKRVIDLISSSTAGAKMPRADWNFIGNVRLPIPRKDEQEAILSHIGRETKDLDETIARAEDEIKLIREYRDRLIADAVTGQVDLRGWQPGPDDVVSDDDLAALGDDDAGSSDDEEADA	not soluble
MSVEFYNQNAQQFFSSTVEVDSTSLLDQFVPYLPQGGLVLDAGCGSGRDSKRFLDMGYQIDAFDASAPLAALAEELLNQSVTVTTFENFTSSKRYDGIWACASLLHVTRESLPETFAHLAKMLKCGGAFYCSFKYGQDEVERDGRRFTNCNEVLLNQLLTSSPLAIDKLWVTQDLRAGREHEQWLNAILIKRLEHHHHHH	soluble
MLPNVAVEFDENSIFRSLGKGNLTFREAFEEIIKFIEADTNSSYRISIGTDSHVGNGTLFVTCIHVHRIGKGAIGFLHKSLMSRPIRNLREKIYMETCMSLQLAYLFDEEKIDRIYKALGKNGKSPTKGVTFEFHIDIGKRGETKALINEMVGMVSGLNFIPKIKPDSYCASCFADRYTKAI	soluble
MSQVTADALTAQVVAEYLYEHPDFFQHHPHLVERLALPTQTGAVSLAHVQLARQRQRIDSLEEEITALMSLAANNDRTFHEFMDLQEQILKCSSLQAVLHAIEAKARELNLRAYVRLLQRHDEKYGLASEDWQRFATNHFNGKSAYLGRLRQADRQRLLGDRPAPEMGSYVVLPLQRQAPLGILAFASEDGGHFQPSMDTLFLRHLALVLAHLIETLPWQSHDEERRTHPAS	not soluble
GPGSMQEERERAERSKLLREEHDFWVEFRDRERAERLKYMTEQEIVELLQREADEATRESNRADQLHQRAMEDALRRRHITADVQRGGEDTVLARRKGEVQVDGIRLAAERETSVMVGAMTVAERTRRAGVERQQREEDLTAKCQQLMTELEEARASATRAQRYQKRAEDDLTREQENTRKEQSDAAACKETNDKLLKELAEVRQQLTASEAERKKAEAAKVQAAREVAQKEKELTCLRKRDDELAAQQASQKAAAEDEKQRAFTFQEELKTYRDALEKEQAARNRAETELAALREQAKTLEAKVAAASAPDPKQVADNMRKLKAVADDARKAQADLVKERQARESAEAAAVEARDALAKEQAVREKVEKEAQRALAASSVSVLHVQKAESDRKKLAEAEKKLEEMRRARNRDEVEKAALKREMEKVKRDLEGEASARAQFEQLASQAVSADDRVPQREVDQLRKALQISQEQCNAARRDTVACQQNAAREIALLKAWCERLQQQHRMQQQVLQSDEEFTPRTATPTPHCRTPRSVRKRIPQDLVADQRQAEEKAASDQRIRELEAHVTRLQVDLGRSKDQERRAIAGAEQARKALEASTATSMPDSGKASPGPSERGIAKEQEAKERAMVQRLNALERECAEAQKKYDDLVVAHRQSEAARCEAELQVAAQRAQIEQRQREEPQSYTSALGNYETSRLEPISATAGESTSALEERIKELERHLAEERAARQAAERRAEESQKLCAAPGTDAMSAAKRAEANVSSSGAGAKGKPQKVKSACC	not soluble
MGSDKIHHHHHHMKFEVASNVLLQHLQLIARVIASRSTLPILESVLFELEGDQLRLTAADMANRMSTELTVNNVGGENGSFAVPERILLEPLKELPDQPISFEINMETKAAEIAYSNGHYSFVVQDVSTYPVAASLSPEAIVSIVPAEALLSGLSATLFATSQDERRPIMTGVYLDFFEDKLVFVGSDGQILVKQEDANVQSRRRSAFCLPRKACLLLRNVLPRLEGDVTLTYDSNYLHIELGNYTLRARLLEGRYPNYNSVIPTSNPFSVKVDRAQLLSGAKRVSIFSNPATSMLRMEFTPAGIRLSANDIDFSVAAEEHVPAECPADINMRIGFKSDVFQTILQGMPSEEVIMTLADQTRAGLILPAENAPGISLCNLLLPMKLIGE	not soluble
MMTYEYILVRYGEMTTKGKNRSKFVSTLKDNVKFKLKKFPNIKIDATHDRMYIQLNGEDHEAVSERLKDVFGIHKFNLAMKVPSELEDIKKGALAAFLQVKGDVKTFKITVHRSYKHFPMRTMELLPEIGGHILENTEDITVDVHNPDVNVRVEIRSGYSYIMCDERMGAGGLPVGVGGKVMVLLSGGIDSPVAAYLTMKRGVSVEAVHFHSPPFTSERAKQKVIDLAQELTKYCKRVTLHLVPFTEVQKTINKEIPSSYSMTVMRRMMMRITERIAEERNALAITTGESLGQVASQTLDSMHTINEVTNYPVIRPLITMDKLEIIKIAEEIGTYDISIRPYEDCCTVFTPASPATKPKREKANRFEAKYDFTPLIDEAVANKETMVLQTVEVVAEEEKFEELF	not soluble
ENVYGYLMKYTNLVTGWQYRFFVLNNEAGLLEYFVNEQSRNQKPRGTLQLAGAVISPSDEDSHTFTVNAASGEQYKLRATDAKERQHWVSRLQICTQHHTEAIGKNN	soluble
MKIAIPKERRPGEDRVAISPEVVKKLVGLGFEVIVEQGAGVGASITDDALTAAGATIASTAAQALSQADVVWKVQRPMTAEEGTDEVALIKEGAVLMCHLGALTNRPVVEALTKRKITAYAMELMPRISRANSMDILSSQSNLAGYRAVIDGAYEFARAFPMMMTAAGTVPPARVLVFGVGVAGLQAIATAKRLGAVVMATDVRAATKEQVESLGGKFITVDDEAMKTAETAGGYAKEMGEEFRKKQAEAVLKELVKTDIAITTALIPGKPAPVLITEEMVTKMKPGSVIIDLAVEAGGNCPLSEPGKIVVKHGVKIVGHTNVPSRVAADASPLFAKNLLNFLTPHVDKDTKTLVMKLEDETVSGTCVTRDGAIVHPALTGQGA	soluble
MYKPTERNAQNSLAMMNYAYDTSLQETMILTEAFHTDRVICDNGSLYKFIWVQEGKLTLIVDHVEIEMEQDEIISVSNLHRTEFKNVSGRYLALLFNENFYGIYKHEKEVSCSGVLFNGTSGIVHLRLPIADSELLHEVVDRMVTEYILRDNLQGEMLRLLLKRFIILCTRLARKQLSGFPVNEKGFDIIQRYYVLVDNHFKEKKQVQAYAALLHRSPKTLSNLFAAYGMPSPLKIIQERVVTEAKRLLLHTSHSIKEISVILGFESVGTFSRFFKNMTGENTSAYRKRLQ	not soluble
RDISVMVLLDLSESTNNQVNGQEFTVLDLTRQATVLLADAINRIGDPFAIHGFCSDGRHDVEYYRFKDFDQPYNEVPKMRLAGMTGQLSTRMGAAIRHASHFLKLQRAAKKLLLVITDGEPADVDVRDPQYLRFDTKKAVEEAGRSGILTYCMSLDPRADQYVSRIFGMRNYMVVDHVERLPEKLPMLYAGLTR	not soluble
